Assay results reported in article PMC3202338.

What was measured:
[1] = target: mero-CFP-PAcKer [GFP: P42212]; experiment: other fluorescence titration
[2] = target: WT_IS domain (residue 83–137 in full-length PAK1 sequence) (UniProt Q13153); experiment: ITC
CFP-PAcKer [GFP: P42212] = experiment: ITC
IS_hairpin = experiment: ITC
IS_helix = experiment: ITC
[3] = target: alternative design: trunc-WT_IS-2 domain (PAK1 residues 87–137) inserted into CFP with glycine-serine linkers [GFP: P42212]; experiment: ITC
[4] = target: Bodipy conjugated IS_helix (Ser-36 mutated to cysteine); experiment: fluorescence polarisation

Substance | Kd [1] [µM] | Kd [2] [µM] | Kd (CFP-PAcKer [GFP: P42212]) [µM] | Kd (IS_hairpin) [µM] | Kd (IS_helix) [µM] | Kd [3] [µM] | Kd [4] [µM]
PAK1 kinase domain (K298R mutant), residues 250–545 (from UniProt Q13153 250-545) (domain or fragment) | 0.6 | 4 | 0.4 | 2.6 | 1.6 | 1.65 | 15
PAK1^V127E/S144E (full-length PAK1 stabilized in the 'open' state, kinase dead K298R) (from UniProt Q13153 1-545) (enzyme) |  |  | 3.3 |  |  |  | 
